# Laboratory results: doi:10.1101/333286
# Target: F-actin (polymerized human platelet actin) (human) (UniProt P60709)
# Test: co-sedimentation
row,percent of NMY-2 S1 fragment in the pellet with F-actin,Substance
1,42%,"NMY-2(S1)-MLC4-MLC5 complex, NMY-2(R252A) S1 fragment (from UniProt G5EBY3 1-874; Q09510 1-172; Q9XVI9 1-142)"
2,66%,"NMY-2(S1)-MLC4-MLC5 complex, wild-type NMY-2 S1 fragment (from UniProt G5EBY3 1-874; Q09510 1-172; Q9XVI9 1-142)"
3,91%,"NMY-2(S1)-MLC4-MLC5 complex, NMY-2(S251A) S1 fragment (from UniProt G5EBY3 1-874; Q09510 1-172; Q9XVI9 1-142)"
